# Experimental data taken from patent US20230227577A1 (MYTHIC THERAPEUTICS, published 2023).
# T1: recombinant human DLL3 protein (human, UniProt Q9NYJ7 27-492, limits assumed)
# T1 construct: also called rhu DLL3; human biotinylated DLL3
# T1 sequence (looked up): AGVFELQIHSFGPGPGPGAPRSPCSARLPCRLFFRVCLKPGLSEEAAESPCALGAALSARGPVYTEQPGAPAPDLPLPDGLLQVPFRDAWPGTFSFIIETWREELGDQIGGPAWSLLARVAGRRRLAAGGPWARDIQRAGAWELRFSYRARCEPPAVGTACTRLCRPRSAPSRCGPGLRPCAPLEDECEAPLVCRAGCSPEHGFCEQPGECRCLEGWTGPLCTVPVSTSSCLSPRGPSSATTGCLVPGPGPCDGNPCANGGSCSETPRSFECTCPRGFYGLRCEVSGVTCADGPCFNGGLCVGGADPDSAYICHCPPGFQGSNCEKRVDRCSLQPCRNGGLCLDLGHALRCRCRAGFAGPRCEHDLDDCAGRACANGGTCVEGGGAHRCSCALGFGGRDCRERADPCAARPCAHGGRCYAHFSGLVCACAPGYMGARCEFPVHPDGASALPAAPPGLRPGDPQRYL
# T2: DLL3 (ELISA DLL3)
# T2 construct: also called DLL3 protein in ELISA
# T2 chain: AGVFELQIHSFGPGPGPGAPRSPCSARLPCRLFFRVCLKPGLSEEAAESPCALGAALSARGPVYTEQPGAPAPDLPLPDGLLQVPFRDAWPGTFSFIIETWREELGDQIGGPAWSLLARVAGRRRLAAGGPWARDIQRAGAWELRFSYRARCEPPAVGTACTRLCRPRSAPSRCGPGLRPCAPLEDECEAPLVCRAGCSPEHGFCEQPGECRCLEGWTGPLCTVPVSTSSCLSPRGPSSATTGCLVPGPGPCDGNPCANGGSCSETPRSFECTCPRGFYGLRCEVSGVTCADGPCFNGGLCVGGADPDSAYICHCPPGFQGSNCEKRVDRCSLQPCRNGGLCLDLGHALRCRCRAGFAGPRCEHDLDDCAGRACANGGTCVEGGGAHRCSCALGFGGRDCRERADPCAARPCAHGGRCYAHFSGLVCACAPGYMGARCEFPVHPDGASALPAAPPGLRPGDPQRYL
# T3: DLL3 target antigen coated on Octet SA tips (binning experiment) (Homo sapiens (Human), UniProt Q9NYJ7 27-492, Probably biotinylated for capture on streptavidin (SA) tips. The site is not stated.)
# T3 sequence: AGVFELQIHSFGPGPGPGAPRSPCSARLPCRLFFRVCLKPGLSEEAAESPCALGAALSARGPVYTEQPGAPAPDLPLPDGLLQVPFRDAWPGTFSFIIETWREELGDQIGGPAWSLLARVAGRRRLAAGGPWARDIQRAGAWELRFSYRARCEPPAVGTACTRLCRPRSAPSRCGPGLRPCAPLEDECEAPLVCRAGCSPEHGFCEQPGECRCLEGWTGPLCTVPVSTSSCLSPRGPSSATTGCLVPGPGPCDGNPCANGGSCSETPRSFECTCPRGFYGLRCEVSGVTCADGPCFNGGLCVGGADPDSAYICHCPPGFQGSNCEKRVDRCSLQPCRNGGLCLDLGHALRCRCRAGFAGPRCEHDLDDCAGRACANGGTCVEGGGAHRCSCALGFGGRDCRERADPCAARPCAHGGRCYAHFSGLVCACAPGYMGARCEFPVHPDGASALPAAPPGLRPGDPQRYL
# T4: mouse DLL3 on CHO cells (mouse, UniProt O88516 33-592)
# T4 construct: whole, on cells; also called CHO cells expressing mouse DLL3
# T4 sequence (looked up): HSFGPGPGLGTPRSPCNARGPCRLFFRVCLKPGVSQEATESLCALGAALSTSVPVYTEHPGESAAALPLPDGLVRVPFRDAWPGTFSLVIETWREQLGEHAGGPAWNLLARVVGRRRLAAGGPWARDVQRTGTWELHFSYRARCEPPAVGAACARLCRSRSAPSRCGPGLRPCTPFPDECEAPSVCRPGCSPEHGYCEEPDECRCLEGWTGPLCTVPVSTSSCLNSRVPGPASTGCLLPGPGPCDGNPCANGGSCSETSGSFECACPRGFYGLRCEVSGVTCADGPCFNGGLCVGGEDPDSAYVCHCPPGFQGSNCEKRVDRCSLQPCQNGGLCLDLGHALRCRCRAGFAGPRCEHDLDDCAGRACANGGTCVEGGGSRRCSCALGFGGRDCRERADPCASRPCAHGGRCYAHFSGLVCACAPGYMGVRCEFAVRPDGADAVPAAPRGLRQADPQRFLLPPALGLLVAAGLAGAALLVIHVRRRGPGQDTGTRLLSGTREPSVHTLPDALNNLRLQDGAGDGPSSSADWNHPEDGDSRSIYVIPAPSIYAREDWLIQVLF
# T5: mouse DLL3 protein (mouse, UniProt O88516 33-490, limits assumed)
# T5 construct: also called murine DLL3
# T5 sequence (looked up): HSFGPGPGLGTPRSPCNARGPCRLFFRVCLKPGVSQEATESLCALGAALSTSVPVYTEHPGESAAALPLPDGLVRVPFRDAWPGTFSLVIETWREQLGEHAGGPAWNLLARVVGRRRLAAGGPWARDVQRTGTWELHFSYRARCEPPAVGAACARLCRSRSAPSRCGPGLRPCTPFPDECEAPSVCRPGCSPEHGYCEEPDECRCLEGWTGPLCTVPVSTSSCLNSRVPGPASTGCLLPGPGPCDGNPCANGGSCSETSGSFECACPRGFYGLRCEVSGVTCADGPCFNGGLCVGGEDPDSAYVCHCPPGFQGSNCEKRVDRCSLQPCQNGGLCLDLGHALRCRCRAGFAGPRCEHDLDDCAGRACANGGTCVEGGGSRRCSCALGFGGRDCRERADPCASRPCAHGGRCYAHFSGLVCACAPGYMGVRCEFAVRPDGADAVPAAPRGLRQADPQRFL
# Columns and labels:
# [1] = molecular target: T1, recombinant human DLL3 protein; assay: Fortebio Octet Red, DLL3 immobilised on tips, dilution series of the VHH, 1:1 binding model; koff error 4.12E-06; Full R2 0.9862
# Method: (§1) Additional experiments were carried out to further characterize the binding properties of the anti-DLL3 constructs. Binding properties tested include dissociation constant (KD), off-rate (koff), binding to DLL3 protein by ELISA and binding to CHO cells expressing human, cyno or mouse DLL3. To obtain off-rate (koff), human biotinylated DLL3 was immobilized on Octet SA tips, and cynomolgus or mouse DLL3 was immobilized on Octet AR2G tips. For each DLL3 protein, the binding to a dilution series of each anti-DLL3 construct was measured using Fortebio Octet Red. The dissociation constant (KD), off-rate (koff) and other kinetic parameters for each anti-DLL3 construct were calculated using a 1:1 binding model. In addition, binding of these anti-DLL3 constructs to CHO cells expressing human, cyno or mouse DLL3 protein was analyzed using flow cytometry (FACS).
# DLL3 (ELISA DLL3) = molecular target: T2, DLL3 (ELISA DLL3); assay: ELISA, ratio of the signal on DLL3 to the signal on the control
# [2] = molecular target: T3, DLL3 target antigen coated on Octet SA …; assay: Octet binning on DLL3-coated SA tips; competitor: 3HCE87
# Method: (§2) Antibody binning experiments were carried out for 5 anti-DLL3 VHHs and an anti-human DLL3 BiTE (SEQ ID NO: 756). The target antigen was coated on a series of Octet SA tips. Each series of tips was first soaked in a periplasmic extract containing one specific VHH. After the response signals reached saturation, the tips were transferred to a mix of PEs containing again the first VHH (at the same concentration) plus a different VHH (termed secondary VHH) for each tip of the series. Secondary VHH that still bind the target antigen in the presence of the first VHH will show an increased response, as compared to the binding response of the first VHH alone. This was repeated for each VHH as primary VHH until all VHH were tested against each other in both directions (as primary and as secondary binder). From the response data, the bins were deduced for each VHH. 2HCE117 and 3HCE4 show competition with the human DLL3 BiTEs, whereas 3HCE56 and 3HCE87 show a partial competition.
# [3] = molecular target: T3, DLL3 target antigen coated on Octet SA …; assay: Octet binning on DLL3-coated SA tips; competitor: 3HCE56
# Method: as §2
# [4] = molecular target: T3, DLL3 target antigen coated on Octet SA …; assay: Octet binning on DLL3-coated SA tips; competitor: 3HCE4
# Method: as §2
# [5] = molecular target: T1, recombinant human DLL3 protein; assay: Fortebio Octet Red, DLL3 immobilised on tips, dilution series of the VHH, 1:1 binding model; kon error 5.82E+02; Full R2 0.9862
# Method: as §1
# [6] = molecular target: T1, recombinant human DLL3 protein; assay: Fortebio Octet Red, DLL3 immobilised on tips, dilution series of the VHH, 1:1 binding model; KD error 1.90E-10; Full R2 0.9862
# Method: as §1
# mouse DLL3 on CHO cells = molecular target: T4, mouse DLL3 on CHO cells; assay: flow cytometry (FACS) on CHO cells expressing mouse DLL3
# Method: as §1
# mouse DLL3 protein = molecular target: T5, mouse DLL3 protein; assay: Octet (DLL3 on AR2G tips), ELISA and FACS; values only in FIG. 3
# [7] = molecular target: T3, DLL3 target antigen coated on Octet SA …; assay: Octet binning on DLL3-coated SA tips; competitor: DLL3 BiTEs
# Method: as §2
# [8] = molecular target: T3, DLL3 target antigen coated on Octet SA …; assay: Octet binning on DLL3-coated SA tips; competitor: 2HCE27
# Method: as §2
# [9] = molecular target: T3, DLL3 target antigen coated on Octet SA …; assay: Octet binning on DLL3-coated SA tips; competitor: 2HCE117
# Method: as §2
binder,measurement,setting,value
"3HCE56 anti-DLL3 VHH (VHH, In the binning assay it was used as a periplasmic extract) VHH: QVQLQESGGGLVQAGGSLRLSCAASGRTFSVDAMGWLRQAPGKEREFVVVIDWTGGSTAYADSVKGRFTISRDNARNTVYLQMNNLKPEDTGVYYCAARERSRTAYDYWGQGTQVTVSS",koff,[1],0.00146 s⁻¹
same,DLL3 / control,DLL3 (ELISA DLL3),18.5
same,binning response (unit not given),[2],-99.1
same,binning response (unit not given),[3],0
same,binning response (unit not given),[4],-79.6
same,kon,[5],68500 M⁻¹ s⁻¹
same,Kd,[6],21.3 nM
same,binding result,mouse DLL3 on CHO cells,binds
same,binding result,mouse DLL3 protein,binds
same,binning response (unit not given),[7],44.1
same,binning response (unit not given),[8],-3.58
same,binning response (unit not given),[9],1110
